Experimental data published in patent publication US20190111164A1.

T1: IgA-Pep13
T1 sequence (peptide, Tn (GalNAc, marked *) on S3 and T7): KPSTPPTPSPSC

T2: IgA-Pep11
T2 sequence (peptide, Tn (GalNAc, marked *) on S3, S5 and T9): KPSPSTPPTPSC

T3: B-MUC2
T3 sequence (peptide, N-terminal acetyl; Tn (GalNAc, marked *) on T3; C-terminal amide): PTTTPLK

T4: D-MUC2
T4 sequence (peptide, N-terminal acetyl; Tn (GalNAc, marked *) on T2 and T3; C-terminal amide): PTTTPLK


How the values were obtained:
Assay in all cases: glycopeptide microarray, antibody at 50 ug/mL
IgA-Pep13 = molecular target: T1, IgA-Pep13
Tn3 linker = molecular target: Tn3 linker
PADRE Tn3b = molecular target: PADRE Tn3b
IgA-Pep11 = molecular target: T2, IgA-Pep11
B-MUC2 = molecular target: T3, B-MUC2
D-MUC2 = molecular target: T4, D-MUC2

Binder | RLU (IgA-Pep13) [RLU] | RLU (Tn3 linker) [RLU] | RLU (PADRE Tn3b) [RLU] | RLU (IgA-Pep11) [RLU] | RLU (B-MUC2) [RLU] | RLU (D-MUC2) [RLU]
2F3 variant #6 (antibody, IgG1, V domains shown) VH: QVQLLESGGGLVQPGGSLRLSCAASGFTFDSYAMSWVRQAPGKGLEWVSAISGSGASTYYADSVKGRFSISRDNSKNTLYLQMNSLRAEDTAVYYCAIRREYSGYAPFDYWGQGTLVIVSS VL: DIVMTQTPSSLSASVGDRVTITCRASQGISSWLAWYQQKPEKAPRSLIYAASSLQSGVPSRFSGSGSGTDFTLTISSLQPEDFATYYCQQYISYPYTFGQGTKLEIK | 253 | 21 | -84 | 311 |  | 
2F3 parent antibody (antibody, V domains shown) VH: QITLRESGGGLVQPGGSLRLSCAASGFTFDSYAMSWVRQAPGKGLEWVSAISGSGDSTYYADSVKGRFSISRDNSKNTLYLQMNSLRAEDTAVYYCAIRREYSGYAPFDYWGQGTLVTVSS VL: DIVMTQTPSSLSASVGDRVTITCRASQGISSWLAWYQQKPEKAPRSLIYAASSLQSGVPSRFSGSGSGTDFTLTISSLQPEDFATYYCQQYISYPYTFGQGTKLEIK |  | 8 | 13 |  |  | 
2F3 variant #17v2 (antibody, IgG1, V domains shown) VH: QITLRESGGGLVQPGGSLRLSCAASGFTFDSYAMSWVRQAPGKGLEWVSAISGSGHSTYYADSVKGRFSISRDNSKNTLYLQMNNLRAEDTAVYYCAIRREYSGYAPFDYWGQGTLVTVSS VL: DIVMTQTPSSLSASVGDRVTITCRASQGISSWLAWYQQKPEKAPRSLIYAASSLQSGVPSRFSGSGSGTDFTLTISSLQPEDFATYYCQQYISYPYTFGQGTKLEIK |  | 24 | 49 |  | 237 | 179
